Target: T1, VqsMt (truncated VqsM) (Pseudomonas aeruginosa PAO1) (UniProt Q9I1P2)
T1 sequence: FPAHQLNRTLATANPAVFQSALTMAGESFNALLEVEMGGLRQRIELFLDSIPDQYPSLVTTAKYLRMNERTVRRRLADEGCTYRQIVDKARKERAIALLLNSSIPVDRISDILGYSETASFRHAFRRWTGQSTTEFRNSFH
Test: EMSA
Details: 20 mM Tris-HCl pH 7.4, 50 mM KCl, 5 mM MgCl2, 10% glycerol, 3 ug/ml sheared salmon sperm DNA; room temperature 20 min; DNA 40-50 nM (footprint DNase I at 25 C)

Sequence | binding
AAAAAGCCTCCGTCATTCCTCATTGCAGTAAGCCCTGATCGATAAAATGCATCACAGCAGAATTGGCCCGGGGTATGACGCTGTCAAGCGCGCAGCCTTGCCGATACGGCAAAATCATGGCAACCCTATCTGTTATGCCAGCACCGTTCAGGACGCAGCCTTCAGCCATCGAGCATCCCCCTCCCTATGACAACGTTCGACCACCTGGGCCGCTTTACCGCAAGCGATACTGTGCGGTTGTGACAATTCCATGAAACGC (double strand) [rhlR promoter] | no binding
TAAAGATGGACGCTGGTTTGCGCAGCCCATGCACTGTCCGCCGCTGTCGCACCGATCGTCGTCAGGATCGATAACGCCAGTGCACAAACTTTTTTCATTGGATTTCCTTTCCGAAACGAAACAAGTTGGATTTTGCACCTACCAGAACTGGTAGTTCTGACCTGTGGCTATCTTCGAAGGCATCGATATTATGCACATTGGAACTCTTCATGACATAACGCCGAGTGACT (double strand) [vqsR promoter] | no binding
AAAAGGCGGCATCCCTACCCTGATACTCCTGGGCCCTCTCAGTCGGAGGACATACCAGCACACACATGAGGGGGAAGACTAAAGGAGGATGAACGGCAGGCAACCTGCCAGATCTGGTAGGGCGCGCCGACCGGCGCGCCCTGCGCTTCAGATGAGACCCAGCGCCGCGGCGTAGGCGGCAGCCAGCGTCTTGTTCGGCGCGTCGAACTTCTTCTGGATGTTC (double strand) [rhlI promoter] | no binding

— PMC4176358
